The values below come from article PMC9249759, “Analysis of diverse double-strand break synapsis with Polλ reveals basis for unique substrate specificity in nonhomologous end-joining”.

Data set [1] has as its target T1, DNA polymerase lambda catalytic domain with brooch motif (DSB.B crystals) (Homo sapiens, UniProt Q9UGP5 233-575).
T1 sequence: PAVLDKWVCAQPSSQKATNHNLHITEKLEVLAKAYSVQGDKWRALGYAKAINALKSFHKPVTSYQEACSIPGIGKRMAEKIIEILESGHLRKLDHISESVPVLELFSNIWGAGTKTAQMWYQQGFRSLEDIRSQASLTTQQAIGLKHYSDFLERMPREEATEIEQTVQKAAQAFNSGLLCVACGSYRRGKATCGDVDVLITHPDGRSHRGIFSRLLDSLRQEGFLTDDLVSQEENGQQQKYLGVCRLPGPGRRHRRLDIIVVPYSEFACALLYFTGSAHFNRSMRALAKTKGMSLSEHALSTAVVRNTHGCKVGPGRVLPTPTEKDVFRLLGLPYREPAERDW
The data set is described as follows: X-ray crystallography, 2.25 A; dUMPNPP, Mg2+ (metal B), Na+ in HhH2 site; Crystals only: DNA with protein on ice or RT, then 0.91 mM dUMPNPP; SSB cacodylate pH 6.5/KCl/Mg acetate/PEG 8000 RT; DSB.A tripotassium citrate/PEG 3350 4 C; DSB.B Na sulfate/PEG 3350 RT; DSB.C cacodylate pH 6.5/ammonium sulfate/PEG 8K 4 C; DSB.D cacodylate pH 6.5/Ca acetate/PEG 8K 4 C, soaked in Mg acetate. Conditions: protein: recombinant; tags: GST tag removed by TEV; single-stranded upstream primer plus duplex CGGCAGC:GCCG (3' overhang 3 nt); 2-nt microhomology; primer 5' end mispairs with same primer of neighbouring complex.

Data set [2] deals with T2, DNA polymerase lambda catalytic domain with brooch motif (Homo sapiens, UniProt Q9UGP5 235-575).
T2 sequence: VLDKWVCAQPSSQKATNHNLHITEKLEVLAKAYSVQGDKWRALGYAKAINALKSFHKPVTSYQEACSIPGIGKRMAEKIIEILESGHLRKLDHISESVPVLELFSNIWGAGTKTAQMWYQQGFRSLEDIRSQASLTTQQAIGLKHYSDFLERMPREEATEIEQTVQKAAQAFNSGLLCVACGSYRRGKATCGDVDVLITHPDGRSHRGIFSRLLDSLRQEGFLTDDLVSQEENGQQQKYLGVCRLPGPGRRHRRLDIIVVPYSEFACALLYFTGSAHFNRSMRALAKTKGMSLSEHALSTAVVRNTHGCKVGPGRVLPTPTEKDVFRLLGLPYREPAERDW
The data set is described as follows: X-ray crystallography, 1.65 A; dUMPNPP, Ca2+/Mg2+ (metal A), Mg2+ (metal B); pre-catalytic; Crystals only: DNA with protein on ice or RT, then 0.91 mM dUMPNPP; SSB cacodylate pH 6.5/KCl/Mg acetate/PEG 8000 RT; DSB.A tripotassium citrate/PEG 3350 4 C; DSB.B Na sulfate/PEG 3350 RT; DSB.C cacodylate pH 6.5/ammonium sulfate/PEG 8K 4 C; DSB.D cacodylate pH 6.5/Ca acetate/PEG 8K 4 C, soaked in Mg acetate. Conditions: protein: recombinant; tags: GST tag removed by TEV; two duplexes: blunt GCACTG:CAGTGC and CGGCA:GCCG (3' overhang 1 nt); no microhomology.

For data set [3], the target named is T2, DNA polymerase lambda catalytic domain …. The data set is described as follows: X-ray crystallography, 1.8 A; dUMPNPP, Na+ (metal A), Mg2+ (metal B); Crystals only: DNA with protein on ice or RT, then 0.91 mM dUMPNPP; SSB cacodylate pH 6.5/KCl/Mg acetate/PEG 8000 RT; DSB.A tripotassium citrate/PEG 3350 4 C; DSB.B Na sulfate/PEG 3350 RT; DSB.C cacodylate pH 6.5/ammonium sulfate/PEG 8K 4 C; DSB.D cacodylate pH 6.5/Ca acetate/PEG 8K 4 C, soaked in Mg acetate. Conditions: protein: recombinant; tags: GST tag removed by TEV; two duplexes: ACTG:CAGTGC (3' overhang 2 nt) and CGGCAGC:GCCG (3' overhang 3 nt); 2-nt microhomology, 1-nt gap.

Data set [4] has the same target. In words: X-ray crystallography, 2 A; dUMPNPP, Mg2+; Crystals only: DNA with protein on ice or RT, then 0.91 mM dUMPNPP; SSB cacodylate pH 6.5/KCl/Mg acetate/PEG 8000 RT; DSB.A tripotassium citrate/PEG 3350 4 C; DSB.B Na sulfate/PEG 3350 RT; DSB.C cacodylate pH 6.5/ammonium sulfate/PEG 8K 4 C; DSB.D cacodylate pH 6.5/Ca acetate/PEG 8K 4 C, soaked in Mg acetate. Conditions: protein: recombinant; tags: GST tag removed by TEV; two duplexes: TACTG:CAGTGC (G:T mismatch at -2, 3' overhang 1 nt) and CGGCAG:GCCG (3' overhang 2 nt); 1-nt microhomology.

For data set [5] the target is unchanged. In words: X-ray crystallography, 1.57 A; dUMPNPP, Mg2+; Crystals only: DNA with protein on ice or RT, then 0.91 mM dUMPNPP; SSB cacodylate pH 6.5/KCl/Mg acetate/PEG 8000 RT; DSB.A tripotassium citrate/PEG 3350 4 C; DSB.B Na sulfate/PEG 3350 RT; DSB.C cacodylate pH 6.5/ammonium sulfate/PEG 8K 4 C; DSB.D cacodylate pH 6.5/Ca acetate/PEG 8K 4 C, soaked in Mg acetate. The settings on record: protein: recombinant; tags: GST tag removed by TEV; 1-nt gap; template with upstream primer and downstream primer.

B1: DSB.B without upstream template (mixed)
DNA: CAGTGC
? 1: CGGCAGC
? 2: GCCG
modifications: 5'-phosphate on GCCG
Take B1: in data set [1], the binding result is given as “binds”.

B2: DSB.D blunt-ended (dsDNA)
DNA 1: GCACTG
DNA 2: CAGTGC
DNA 3: CGGCA
DNA 4: GCCG
modifications: 5'-phosphate on GCCG
As to B2, in data set [2], the binding result is given as “binds”.

B3: DSB.A complementary (dsDNA)
DNA 1: ACTG
DNA 2: CAGTGC
DNA 3: CGGCAGC
DNA 4: GCCG
modifications: 5'-phosphate on GCCG
In the case of B3, in data set [3], the binding result is given as “binds”.

B4: DSB.C mismatched (dsDNA)
DNA 1: TACTG
DNA 2: CAGTGC
DNA 3: CGGCAG
DNA 4: GCCG
modifications: 5'-phosphate on GCCG
With B4, the binding result in data set [4] is reported as “binds”.

B5: 1nt-gapped SSB (dsDNA)
DNA 1: CGGCAGTACTG
DNA 2: CAGTAC
DNA 3: GCCG
modifications: 5'-phosphate on GCCG
For the molecule B5, the binding result in data set [5] is “binds”.
